This series can be described thus: label from the status in PepcDB records.
As for “MSRSSSPPLAPARRTRGGHACLALAMVLAGSTVPASKLIAAEVAPFTATAIRLGLALPVFLLLMRATGARWPRPGRRDACLLALQAAAGSVGYTALLIAGLRLTSAADAAVVIGTLPAVTALLAMAVLRERPPPRTLAAIALAAAGVLVLVGGRTDDAPGSLAGNLLVLGAVVCEGLFILLSKRLRAPIAPLPLSAALTAIGAVLAGAAALAEAPWHAAFGSPALAVLAYYAWLPTVAGFVLWYAGLARASASEAALFTALAPVAAVLLAALALGETVGPRQAAGIGCVLAAVLALRPGGDKQSQKENIK”, the protein production result is given as “failed”.

For “MSRTLVLFDIDGTLLKVESMNRRVLADALIEVYGTEGSTGSHDFSGKMDGAIIYEVLSNVGLERAEIADKFDKAKETYIALFRERARREDITLLEGVRELLDALSSRSDVLLGLLTGNFEASGRHKLKLPGIDHYFPFGAFADDALDRNELPHIALERARRMTGANYSPSQIVIIGDTEHDIRCARELDARSIAVATGNFTMEELARHKPGTLFKNFAETDEVLASILTPKHS”, the protein production result was “not failed”.

With “MSRTTPYRLDDQIGFILRQANQRYAALFANGIGNGLTPTQWAALVRLGETGPCPQNQLGRLTAMDAATIKGVVERLDKRGLIQRSADPDDGRRLLVSLSPAGRAELEAGLAAAREINRQALAPLSLQEQETLRGLLARLI”, the protein production entry is on record as “not failed”.

Regarding “MSRVQMDTEEVREFVGHLERFKELLREEVNSLSNHFHNLESWRDARRDKFSEVLDNLKSTFNEFDEAAQEQIAWLKERIRVLEEDY”, the protein production result is “not failed”.

With “MSRYIEAGLSDIGTLGEYVAERPNKGFEPARRRAGVSHTTVSGPKLAVAVMAVSAVCCPCGCQCVLVTPLSPRSFTLCAHIIDTMNTLVDGEWRTDAYETTNEDGAFDRQDTTFRDRVEDDPDARFQPEAGRYHLYACRACPWAHRILVARKLLGLEDAITVDYVDPFRGEDGWQFTPEKAGCTPDTVNGSDYLREVYVEADPDATCRVTVPVLWDKQEETIVNNESEEILRMLDTEFDDVSDNDVDLYPEGYQDEVDRIIDDIYEPINNGVYRSGFADSQSAYDEAVEELFDALDHWDTVLEDQRFLAGDRLTEADICLFTTLVRFDEVYHTHFMCNHKLIREYDNLWPYLRDLYQLPGVAETVNMDHITEHYYTTHPDVSPKRIVPMGPDPDFEAVHDRDELPGDLPETLFPTA”, the protein production entry is given as “failed”.

As to “MSSACDAGDHYPLHLLVWKNDYRQLEKELQGQNVEAVDPRGRTLLHLAVSLGHLESARVLLRHKADVTKENRQGWTVLHEAVSTGDPEMVYTVLQHRDYHNTSMALEGVPELLQKILEAPDFYVQMKWEFTSWVPLVSRICPNDVCRIWKSGAKLRVDITLLGFENMSWIRGRRSFIFKGEDNWAELMEVNHDDKVVTTERFDLSQEMERLTLDLMKPKSREVERRLTSPVINTSLDTKNIAFERVFRVLKLTLLQLTVCS”, the protein production entry is reported as “failed”.

For the sequence “MSSAQVNGISKRLIVESPNVKLEDGVLESRFTYRKNHFEHRADGLHVTPKEHDYSFKTVLKPRKTGLLLVGLGGNNGSTAVGSIFANQYAMTWRTKEGHSQANYFGSVTQTATVHLGYDSATQNQIFVPFKDIVPILSPNDLIISGWDISDSNLYEAMGRAKVFEPELQEKLRPFMEPIVPLPSIYYPDFIASNQGDRANNVIPGDNKLEHLEHIRADIRKFKQEHELECVIVLWTANTERYTDVRQGLNATADEIMESIRVNEDEVSPSNIFAVASILEGAHYINGSPQNTLVPGLIELAERHKVFVGGDDFKSGQTKFKSAFVDFLVSSGMKPESIVSYNHLGNNDGKNLSEARQFRSKEISKSSVVDDMVKSNQILFPDAKNPDYCVVIKYVPYVADSKRAMDEYICSIFMGGKQTFVVHNTCEDSLLASPLIYDLAILTELASRVSYKVDDEYKPFHSVLSILSLLLKAPVVPPGTPISNAFMRQFSTLTKLVTALAGFPSDTDMQIEFFTQLPAAKSKSQ”, the protein production result is “not failed”.

For “MSSARLVIAGLNGGTGKTILSLGTVRALTNAGHSVKPFKKGPDYIDAEWLGLAAGRAATNLDPFFLDAARLQSLFLHASAGASISIIEGNRGLYDGRDVTGSCSTAELARILDSPVVLAMDCTKMTRTAAAILSGVAAFEPGVKLAGVVLNRTANERHRSMLRQCIEHYTDIPVLGALPRLRDNPIPERHMGLVSDREFAQCAGELDRVAQFVAQHVDVERMAEIARSAQPLASNEPFWPVVAEGDGVRPRIGYVRDAALWFYYEENLEALRQAGADLVELRIIDGDPWPTLDGLYLGGGFPETLASELSACRERLAGIREAALAGLPVYAECGGFMVLGESIVMDGVEYPMSGVFPVQTVFHPKPQGLGYVEAEVVAENPFFPQGMVFRGHEFHYSACRPRDGGAVTHALRLNPGTGMGGGADGLVQANTFAAYTHIFGPAVQGWAERFVRAARGHRDQLNKGTDLSLEHHHHHH”, the protein production entry was “failed”.

“MSSCCAAEAKNASERKLLWIVLILNFSMFVIEFIAGWLANSSGLLADSLDMLADAAVYSLSLYAVGKSLLYKGRAALANGYLQLSLGLLVLVDVARRIWLGSEPQSELMLSIGFMALIVNMICFVLLYQFRQGDVNLKASWICSRNDMLANIGIIISAVLVGQFDAAWPDWVIGSVIAGIVIHSSLAIINEAKVSIQSDAVADKNRT”: the protein production result is “failed”.

On to “MSSCGCAYDILKYQLVIKGNRFNEESEQSMTETTENTVNLPYRNPKLPTEERIADLLGRMTLEEKVGQMMQLDARSGDLDDLIVNKHVGSILHTSPSDLPKAVETVNAKTRLGIPLVIGDDCIHGYSFWPGATIFPEQLGMATTWDSEKVQAAGRATAEEVSATGVHWTFSPVLCIARDTRWGRVGETFGEDPYLIGEMASSIVKGYQGGAKAGEPLAKDAILACAKHFAGYSETQGGRDASEADLSHRKLESWFLPPFERVAKEGCGTFMLGYESIEGVPVTFNKWLLSDKLRGAWNYQGTLITDWDNVGRSVWEQKVKPDYVQAAADAVKSGNDLVMTTPKFYEGAIEAVKTGLLDESLIDAAVARILALKFRLGLFEDPRLPDQKRIDAVIGSEEHQQLNLEVAREAVALLKNDGSLPFNVAGAKRIAVVGPLADDVQTQLGDWAGSSGQINWMPDGHPREMITTVLDGFKQLAPEGCEVVYSRGANIVDLVPDPEGEFYPDGQPRPKIGVSAKIDRALLGEAVENARKSDLIVAVVGDVIQAIGEGCSTATLELLGGQNALIDALSNVARETGKPFVVVLVSSKPQVLPASVIGTNGVIVDETPAEGTSALLWAPSPGMKGGQAIAEIILGETEPSGRLPITFPRHAGQLPVYYNQIRGQHGNRYADLTQNPAFAFGEGLSYTTFEYGDPTITNVPESGIFAETDTVHAEITLTNTGDRKGTEVVQLYIGDIVTSYSWTDRELKAFQRVELEPGKSKTVAFDIPVSDCTIVDSEANRIVEPGEFEVLIGHSSRREHLKRTTFTVA”, for which the protein production result is recorded as “failed”.

In the case of “MSSDAVSKYTPGIYRTSIRLNNNTFDVEVTVDQDQIQSIHLANLSESTSAMFPLVEPVLDSLSSQIYSGQSLDDLEYSSDQKYTALMLIHAIDEAVTKAEADLEHHHHHH”, the protein production result is on record as “not failed”.

Consider “MSSFFSVLLVLGGLIFFHELGHYLAARVLGIGVHTFSLGFGPRIFGWRSGQTDYRLSLIPLGGYVSLAGESDDEIPEGFTKGQMFSARPAWHRLIVIAAGPVFNLLLAWFIYWGLTFVHGQFIVLPEVGKVLEGGPAAAAGVQSGDRIVAIDGVSIERWDQVSDAIAASKGAPVTLSLTRNEGQHELRIVPEHRTRKTIFGDEEDAFLIGIQASGATMTLPQTPVEAAVTGARQTWTMIAMTGKGVVKLFERVVPLDTVGGPIMIAQMVSREAKDSGITGVLALAALISINLGLLNLLPIPVLDGGHIIFLGLEMLFRRPVPQKVQEVTTRMGLVLLLGLMFLATYNDIVRIGQ”, for which the protein production entry is reported as “failed”.

“MSSKNTAEVILGGKVIKLGGYESEEYLQRVASYINNKITEFNKEESYRRMSAELRTDMMYLNIADDYFKAKKMADSLSLDIENKDKEIYDLKHELIAAQIKAESSAKEIKELKSEINKYQKNIVKLETELNDSKK”: the protein production entry is “not failed”.

On to “MSSLLYARVRANARFQQLVARRNRFTLSLFVLILATFYGYIGLVSFWPELIARRLAQGSNMTVGVAAGAFLFVFFCALSAFYVYRANGEFDSLTQALLSGLEEEQGA”, for which the protein production result is listed as “failed”.

With “MSSLTARWHRSIQEIPEQHWQALVSDHAIPFYRWSWLEALESSGSIIPEQGWQPLHLALWRGDVPIAVAPLYLKGHSYGEFVFDQTFARLAGDLGLRYYPKLLGMSPVSPVLGYRFHVLPGEDEAELTAVLLRAIDAFCEHNSILSCNFLYVDPQWRPLAEAAGCATWLNQQSLWSRGDDQSFDDYLNGFNANQRRNIKRERKAVAKAGLTVTPLTGEQLDLELFQIMHGFYEQHCARWGPWGSKYLEQGFFEALAGLHREQVVLFSAHRGDPREPVAMSMCVRDDHHLWGRYWGSEEEIDCLHFEVCYYAPIEWAISQGIDSFDPGAGGSHKRRRGFVARPHASLHRWYQPQMDGLIRAWLPKVNGLMLEEIEAINAELPFKADAPSLSL”, the protein production entry is given as “failed”.

As for “MSSMYTTFAEQYDNVVQDNIYNAYLERPSLQAMLGDVNGCDVIDLGCGSGVYADYFIHRGVAKLTCIDYSPNMIEIVKRKFGDRVTAYAQDASIGLIKEASESADLIISPLMIHYLEDLSVLFNDVARVLKNGGNFAFSTHHPFADFECTLSGNYFEREFITEMWNTVGEPVEVTFYRRSLTEIMNAITDSGLVVTQLSEGKVAEEVKQISLEKYEYLSKNPNFIFIKCQKLV”, the protein production entry was “failed”.

On to “MSSNAQVRPPLPPFTRESAIEKIRLAEDGWNSRDPERVSLAYTLDTQWRNRAEFAHNREEAKAFLTRKWAKELDYRLIKELWAFTDNRIAVRYAYEWHDDSGNWFRSYGNENWEFDEQGLMARRFACINDMPIKAQERKFHWPLGRRPDDHPGLSELGLLEHHHHHH”, for which the protein production entry is given as “not failed”.

Take “MSSNMQQTINVWDPLIRIFHWSLVGFFTLAYLTEGEDEWMNIHSYAGYSILTLLVFRLLWGVIGTHHARFNHFITRPSIAWTYLKQLFSGNAKDYIGHNPAGALMIIALITSIAVAGFSGMALYATDSQGPLATSFFATWPEGALKEVHEFFANFSLFLIATHIGGVIVSSLLHKENLIRAMVTGKKQRPLIQQDERQ”: the protein production result is “failed”.

In the case of “MSSPAILLFDIDGVIRDVAGSYRRALQVTVEHYSGWQPMAADIDALKAEGCWNNDWDASLELLRRHENDVPSRSELIEVFSGFYFGGDPEGDPAEWQGFIGDEPLLVTRAFFDELTRHDIRWGFVSGAEPPSARYVLQQRLDLKDPPLIAMGDAPDKPDPTGLIRLAEQMAAGEVPHWIAYIGDTVADVQTVLNARKRRPELPWRSLAVAPPHVTDVSTYHRQLQDAGADRIVGATRELLPMLLDELA”, the protein production entry is recorded as “failed”.

The values above are taken from a protein production outcome set (Wang et al. 2014).
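Note: failed if final PepcDB status was selected cloned or expressed and not failed if soluble or beyond.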
